Assay results from article doi:10.1101/2023.10.19.563203.
Read-outs that look alike come from different tables or passages of the source.

Key:
[1] = target: fibrin (human) (UniProt P02679); assay: radioligand binding
[2] = target: fibrin (human) (UniProt P02679); assay: depletion on clotting, ELISA of plasma against the serum made from it
[3] = target: fibrin (human) (UniProt P02679); assay: co-sedimentation
[4] = target: fibrin (human) (UniProt P02679); assay: co-sedimentation; remark: listed apart in the source

**Q.** Which results are given for “factor H (from UniProt P08603 19-1231) (natural protein)”?
**A.** Kd [1]: 0.055 nM; binding at 75 mM NaCl as percent of that at 20 mM NaCl [1]: < 50%; percent of input bound (500,000 cpm/well) [1]: 1.7%; percent of input bound at saturation (input 3.5 μg) [1]: 0.1%; percent of the plasma level lost in the serum (healthy volunteer) [2]: 38%; percent bound at 96 min, non-denaturing wash [3]: 25%; fold increase of percent bound, enhanced against normal clots, at 140 mM NaCl [4]: 6 fold; percent bound after 16 h, after 5 M urea wash (Table 1) [4]: 30%; percent bound at 30 min, after 5 M urea wash [4]: 13%; percent bound at 30 min, non-denaturing wash [4]: 22%; percent bound at 96 min, after 5 M urea wash [4]: 18%; percent bound at 96 min, non-denaturing wash [4]: 26%; percent bound at 960 min, after 5 M urea wash [4]: 32.5%; percent bound to enhanced plasma clots, 40 min, HEPES-½-saline wash [4]: 21.5%; percent bound to fibrin-only-clots, HEPES-½-saline wash [4]: 19%; percent bound to plasma clots at 70 mM salt [4]: 21.5%

**Q.** How did the percent bound after 16 h, after 5 M urea wash (Table 1) [4] turn out when plasminogen (natural protein) was run?
**A.** Its percent bound after 16 h, after 5 M urea wash (Table 1) is 31%.
